In PMC9228767, “Structural and Functional Characterization of the Holliday Junction Resolvase RuvC from Deinococcus radiodurans” (Microorganisms, 2022):

Key:
[1] = target: T1, DrRuvC (Deinococcus radiodurans, UniProt Q9RX75 1-179); assay: EMSA; 1 mM EDTA; 0-500 nM protein; 50 mM Tris-HCl pH 7.0, 100 mM NaCl, 1 mM EDTA, 1% glycerol, 50 nM 5'-FAM DNA, on ice 30 min, 5% native PAGE; settings: protein: recombinant; tags: N-terminal 6xHis (pET28a NdeI/BamHI); chain copies: 2; label: 5'-FAM on one strand; four-way junction, non-homologous core, immobile, 4 strands
T1 sequence: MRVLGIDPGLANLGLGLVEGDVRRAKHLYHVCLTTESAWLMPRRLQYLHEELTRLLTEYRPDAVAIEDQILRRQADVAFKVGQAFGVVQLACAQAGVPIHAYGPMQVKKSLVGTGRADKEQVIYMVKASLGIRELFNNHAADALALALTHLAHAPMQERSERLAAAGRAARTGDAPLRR

[2] = target: T1, DrRuvC; assay: EMSA; no stable shift up to 500 nM protein; 50 mM Tris-HCl pH 7.0, 100 mM NaCl, 1 mM EDTA, 1% glycerol, 50 nM 5'-FAM DNA, on ice 30 min, 5% native PAGE; settings: protein: recombinant, tags: N-terminal 6xHis (pET28a NdeI/BamHI), chain copies: 2, label: 5'-FAM on one strand
[3] = target: T1, DrRuvC; assay: EMSA; 1 mM EDTA; 0-500 nM protein; no significant difference from HJ-0X; 50 mM Tris-HCl pH 7.0, 100 mM NaCl, 1 mM EDTA, 1% glycerol, 50 nM 5'-FAM DNA, on ice 30 min, 5% native PAGE; settings: protein: recombinant; tags: N-terminal 6xHis (pET28a NdeI/BamHI); chain copies: 2; label: 5'-FAM on one strand; four-way junction, 12 bp homologous mobile core, 4 strands
[4] = target: the molecule itself; assay: SEC; Superdex 75 10/300 GL column, recombinant DrRuvC; 4 °C; buffers in Supplementary Table S1

B1: HJ-0X (structured_DNA)
DNA 1: CCACCAGAAACACGCCACAGTTTTTGTTTTGATTGCGAGGCCGTCCTACC
DNA 2: GGTAGGACGGCCTCGCAATCAAAACTTTTTGAGCACGCGAGATGTCAACG
DNA 3: CGTTGACATCTCGCGTGCTCAAAAAAAAAACAGATGCGGAGTGAAGTTCC
DNA 4: GGAACTTCACTCCGCATCTGTTTTTAAAAACTGTGGCGTGTTTCTGGTGG
B1: binds [1].

B2: bulge (dsDNA)
DNA 1: CCACCAGAAACACGCCACAGTTTTTGTTTTGATTGCGAGGCCGTCCTACC
DNA 2: GGTAGGACGGCCTCGCAATCTTTTGTTTTTCTGTGGCGTGTTTCTGGTGG
B2: no binding ([2]; internal unpaired bubble, blunt ends).

B3: Y-junction (structured_DNA)
DNA 1: CCACCAGAAACACGCCACAGTTTTTGTTTTGATTGCGAGGCCGTCCTACC
DNA 2: GGTAGGACGGCCTCGCAATCAAAACTTTTTGAGCACGCGAGATGTCAACG
DNA 3: CGTTGACATCTCGCGTGCTCAAAAAAAAAACTGTGGCGTGTTTCTGGTGG
B3: no binding ([2]; three-way junction, 3 strands).

B4: duplex (dsDNA)
DNA 1: CCACCAGAAACACGCCACAGTTTTTGTTTTGATTGCGAGGCCGTCCTACC
DNA 2: GGTAGGACGGCCTCGCAATCAAAACAAAAACTGTGGCGTGTTTCTGGTGG
B4: no binding ([2]; blunt).

B5: flap (structured_DNA)
DNA 1: CCACCAGAAACACGCCACAGTTTTTGTTTTGATTGCGAGGCCGTCCTACC
DNA 2: GGTAGGACGGCCTCGCAATCAAAACTTTTTGAGCACGCGAGATGTCAACG
DNA 3: CGTTGACATCTCGCGTGCTCAAAAA
B5: no binding ([2]; flap, 3 strands: S1 3' half with S4 5' half, S4 3' half with S5).

B6: HJ-12X (structured_DNA)
DNA 1: GACGCTGCCGAATTCTGGCTTGCTAGGACATCTTTGCCCACGTTGACCCA
DNA 2: TGGGTCAACGTGGGCAAAGATGTCCTAGCAATGTAATCGTCTATGACGTT
DNA 3: AACGTCATAGACGATTACATTGCTAGGACATGCTGTCTAGAGACTATCGA
DNA 4: TCGATAGTCTCTAGACAGCATGTCCTAGCAAGCCAGAATTCGGCAGCGTC
B6: binds [3].

B7: RuvC from Deinococcus radiodurans (DrRuvC), full-length (enzyme, UniProt Q9RX75 1-179, looked up)
chain: MRVLGIDPGLANLGLGLVEGDVRRAKHLYHVCLTTESAWLMPRRLQYLHEELTRLLTEYRPDAVAIEDQILRRQADVAFKVGQAFGVVQLACAQAGVPIHAYGPMQVKKSLVGTGRADKEQVIYMVKASLGIRELFNNHAADALALALTHLAHAPMQERSERLAAAGRAARTGDAPLRR
notes: Holliday junction resolvase RuvC (DR_0440) of Deinococcus radiodurans, full length; has a C-terminal tail (residues 163-179); residues 1-154 of each monomer are seen in the crystal structure; Cloned into pET28a between NdeI and BamHI; the His tag is said to be on the protein used for crystallisation; also called DR_0440; source: E. coli BL21 (DE3), purified (nickel, desalting, Heparin ion …)
B7 was tested, and the “stoichiometry N” value [4] was 2.
